Results published in patent publication US20100227414A1, “Affinity capture mass spectroscopy with a porous silicon biosensor” (Trex Enterprises Corp., priority 2009, published 2010).

Target: extra-cellular receptor for interleukin 34 (Homo sapiens, UniProt P07333)
Test: NPOI flow cell label-free binding with fraction collection (AC-MS)
Source text: The first embodiment is sketched in FIG. 3. The NPOI flow cell instrument is used together with a fraction collector. This fraction collector could simply be a collection vessel of some sort. Initially capture molecule is placed on the porous silicon chip using a typical flow cell procedure. A carboxyl chip shown at 214 in FIG. 2, used for amino coupling, is used. This contains both a sample and reference channel 220 and 221. Using the AutoPrep 200 and two 6-port, 2-position injection valves, one for the sample 210 and one for the reference 211, solutions are introduced to the flow cell. Initially the chip is activated using water as running buffer, pumped by two separate pumps one for sample 212 and one for reference 213, at 8 μL/min. A solution of 200 mM, 1-ethyl-3-(3-dimethylaminopropyl) carbodiimide (EDC) and 50 mM sufo N-hydroxysuccinimide (sNHS) is used to activate the chip for 8 minutes. Then a solution of 20 μg/mL capture molecule is introduced in pH 5.0, 40 mM acetate buffer (1-1,000 μg/mL concentration may also be used). […] The chip is now ready for binding. […]
A specific example of such an approach is shown in FIG. 8 which is a print of a monitor display showing Mascot Search Results. […] The resulting data was analyzed using Mascot and a customized human protein database (810) show the successful identification of IL34.

extra-cellular receptor for interleukin 34, sequence (P07333 20-517 limits assumed): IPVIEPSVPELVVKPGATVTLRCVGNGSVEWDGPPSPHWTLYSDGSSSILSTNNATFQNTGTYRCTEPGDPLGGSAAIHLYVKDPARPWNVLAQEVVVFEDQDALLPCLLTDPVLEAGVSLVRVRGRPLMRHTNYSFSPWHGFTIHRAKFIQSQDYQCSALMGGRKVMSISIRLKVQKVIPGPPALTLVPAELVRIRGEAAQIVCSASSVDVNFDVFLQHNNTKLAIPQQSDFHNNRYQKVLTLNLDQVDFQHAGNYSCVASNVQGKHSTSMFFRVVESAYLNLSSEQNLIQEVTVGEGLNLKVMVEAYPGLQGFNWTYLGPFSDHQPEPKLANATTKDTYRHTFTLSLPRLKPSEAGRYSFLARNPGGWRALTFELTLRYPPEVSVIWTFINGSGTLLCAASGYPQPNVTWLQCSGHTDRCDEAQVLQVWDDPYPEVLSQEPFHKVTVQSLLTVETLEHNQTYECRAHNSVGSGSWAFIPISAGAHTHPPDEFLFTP

change in OPD (label-free binding signal) (IL34 100 ng/mL in spent cell culture media, 50 μL, between 0 and 240 seconds, receptor immobilized at 100 μg/mL): 0.7 nm
amount captured on chip corresponding to OPD change (almost complete capture of the material introduced): 5 ng
B1: Interleukin 34 (protein, UniProt Q6ZMJ4 21-242, looked up)
Interleukin-34: NEPLEMWPLTQNEECTVTGFLRDKLQYRSRLQYMKHYFPINYKISVPYEGVFRIANVTRLQRAQVSERELRYLWVLVSLSATESVQDVLLEGHPSWKYLQEVETLLLNVQQGLTDVEVSPKVESVLSLLNAPGPNLKLVRPKALLDNCFRVMELLYCSCCKQSSVLNWQDCEVPSPQSCSPEPSLQYAATQLYPPPPWSPSSPPHSTGSVRPVRAQGEGLLP
notes: Interleukin 34 (the analyte) doped into spent cell culture media
